{"source": "paper PMC5462769", "about": "“A highly conserved sequence of the viral TAP inhibitor ICP47 is required for freezing of the peptide transport cycle” (Scientific Reports, 2017)", "key": {"[1]": {"molecular_target": "TAP (Homo sapiens) (UniProt Q03518)", "conditions": "cited from earlier work"}, "[2]": {"molecular_target": "TAP (Homo sapiens) (UniProt Q03518)", "conditions": "cited from earlier work", "remark": "listed apart in the source"}, "[3]": {"molecular_target": "rT1/hT2 (rat TAP1 with a human C-terminus, with human TAP2-FLAG) (rat | human) (UniProt P36370)"}, "[4]": {"molecular_target": "rT1/rT2 (rat TAP1 with a human C-terminus, with rat TAP2-FLAG) (rat | human) (UniProt P36370)"}, "[5]": {"molecular_target": "T1, hT1/hT2 (human TAP1 with human TAP2-FLAG) (human, UniProt Q03518 1-748; Q03519 1-686)", "T1 sequence 1": "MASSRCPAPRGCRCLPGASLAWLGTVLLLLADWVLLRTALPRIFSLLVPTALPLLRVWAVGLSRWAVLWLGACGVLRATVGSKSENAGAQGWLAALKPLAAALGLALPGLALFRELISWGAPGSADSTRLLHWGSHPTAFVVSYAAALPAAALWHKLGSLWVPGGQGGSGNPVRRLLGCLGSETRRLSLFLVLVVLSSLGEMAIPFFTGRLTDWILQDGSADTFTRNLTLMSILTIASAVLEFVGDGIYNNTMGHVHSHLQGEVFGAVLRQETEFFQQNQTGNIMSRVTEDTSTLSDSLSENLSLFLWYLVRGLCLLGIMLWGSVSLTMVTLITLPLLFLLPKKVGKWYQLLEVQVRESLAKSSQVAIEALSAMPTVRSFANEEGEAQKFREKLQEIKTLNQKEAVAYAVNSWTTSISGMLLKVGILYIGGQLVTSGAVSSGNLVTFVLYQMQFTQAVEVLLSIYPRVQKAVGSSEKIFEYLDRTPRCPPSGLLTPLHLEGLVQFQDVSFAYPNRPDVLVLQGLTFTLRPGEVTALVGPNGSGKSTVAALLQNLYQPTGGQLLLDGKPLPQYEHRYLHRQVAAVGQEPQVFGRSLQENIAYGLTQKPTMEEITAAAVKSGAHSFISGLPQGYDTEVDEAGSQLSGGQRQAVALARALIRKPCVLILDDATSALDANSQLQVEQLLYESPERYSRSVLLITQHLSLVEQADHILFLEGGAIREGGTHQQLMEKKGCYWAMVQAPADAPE", "T1 sequence 2": "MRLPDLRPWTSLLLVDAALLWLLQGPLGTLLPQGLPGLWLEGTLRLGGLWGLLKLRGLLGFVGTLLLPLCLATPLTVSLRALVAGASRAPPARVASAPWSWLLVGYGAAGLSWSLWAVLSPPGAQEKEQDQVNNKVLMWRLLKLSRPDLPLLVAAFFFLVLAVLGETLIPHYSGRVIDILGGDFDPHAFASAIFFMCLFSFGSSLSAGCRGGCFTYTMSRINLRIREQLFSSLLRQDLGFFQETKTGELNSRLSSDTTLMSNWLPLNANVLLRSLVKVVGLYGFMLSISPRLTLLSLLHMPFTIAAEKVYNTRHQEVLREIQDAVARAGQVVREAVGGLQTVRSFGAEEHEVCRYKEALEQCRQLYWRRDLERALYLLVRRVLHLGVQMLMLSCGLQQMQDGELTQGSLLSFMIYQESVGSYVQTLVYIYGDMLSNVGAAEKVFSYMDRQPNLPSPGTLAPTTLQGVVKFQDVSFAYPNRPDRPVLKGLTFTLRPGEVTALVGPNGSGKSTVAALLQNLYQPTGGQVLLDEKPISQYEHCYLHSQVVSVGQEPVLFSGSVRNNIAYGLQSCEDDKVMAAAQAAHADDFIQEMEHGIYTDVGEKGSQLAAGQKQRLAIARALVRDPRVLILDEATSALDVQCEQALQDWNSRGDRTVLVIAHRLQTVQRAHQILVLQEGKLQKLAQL", "assay": "cell-based or functional assay"}, "[6]": {"molecular_target": "T2, hT1/rT2 (human TAP1 with rat TAP2-FLAG) (human | rat, UniProt Q03518 1-748; P36372 1-703)", "T2 sequence 1": "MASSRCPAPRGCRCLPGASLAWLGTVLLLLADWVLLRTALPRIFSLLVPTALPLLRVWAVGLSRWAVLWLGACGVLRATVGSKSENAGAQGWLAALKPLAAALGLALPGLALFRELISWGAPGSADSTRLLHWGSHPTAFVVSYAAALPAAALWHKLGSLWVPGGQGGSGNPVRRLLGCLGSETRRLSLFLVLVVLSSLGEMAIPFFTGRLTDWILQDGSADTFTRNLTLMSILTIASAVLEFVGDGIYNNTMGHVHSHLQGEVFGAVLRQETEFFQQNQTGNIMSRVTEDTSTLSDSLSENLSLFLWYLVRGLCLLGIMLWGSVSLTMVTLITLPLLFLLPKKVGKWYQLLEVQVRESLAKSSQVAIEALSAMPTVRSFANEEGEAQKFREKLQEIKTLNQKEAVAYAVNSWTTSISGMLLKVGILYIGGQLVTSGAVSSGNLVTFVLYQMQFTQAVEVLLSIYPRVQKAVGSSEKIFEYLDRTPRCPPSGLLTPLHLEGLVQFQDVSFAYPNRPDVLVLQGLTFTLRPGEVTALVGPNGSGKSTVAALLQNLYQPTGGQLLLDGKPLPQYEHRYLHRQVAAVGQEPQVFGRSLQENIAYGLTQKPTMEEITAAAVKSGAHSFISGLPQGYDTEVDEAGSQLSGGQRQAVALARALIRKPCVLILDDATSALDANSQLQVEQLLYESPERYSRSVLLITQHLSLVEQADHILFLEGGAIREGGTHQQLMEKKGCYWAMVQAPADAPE", "T2 sequence 2": "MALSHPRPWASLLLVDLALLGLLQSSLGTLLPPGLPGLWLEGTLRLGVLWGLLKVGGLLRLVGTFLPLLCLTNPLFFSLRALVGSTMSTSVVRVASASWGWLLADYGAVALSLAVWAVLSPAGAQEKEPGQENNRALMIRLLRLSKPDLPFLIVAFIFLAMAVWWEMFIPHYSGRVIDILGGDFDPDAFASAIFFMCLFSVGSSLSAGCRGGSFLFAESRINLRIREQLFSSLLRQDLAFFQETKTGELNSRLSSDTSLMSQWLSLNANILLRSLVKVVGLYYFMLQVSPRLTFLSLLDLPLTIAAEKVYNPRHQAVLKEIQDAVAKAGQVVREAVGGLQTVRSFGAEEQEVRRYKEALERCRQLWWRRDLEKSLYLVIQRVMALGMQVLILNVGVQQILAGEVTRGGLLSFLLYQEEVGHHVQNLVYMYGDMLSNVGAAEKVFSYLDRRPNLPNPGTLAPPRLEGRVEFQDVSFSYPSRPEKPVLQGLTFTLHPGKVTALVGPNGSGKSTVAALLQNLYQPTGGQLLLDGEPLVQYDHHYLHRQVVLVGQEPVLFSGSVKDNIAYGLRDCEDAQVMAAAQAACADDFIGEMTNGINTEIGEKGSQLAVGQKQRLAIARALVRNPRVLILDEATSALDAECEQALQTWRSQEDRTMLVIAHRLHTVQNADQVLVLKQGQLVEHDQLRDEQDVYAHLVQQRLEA", "assay": "cell-based or functional assay"}}, "note": "Read-outs that look alike come from different tables or passages of the source."}
{"molecule": "ICP47 1-53 (from UniProt P03170)", "values": [{"measurement": "Kd", "setting": "[1]", "value": 50, "unit": "nM"}]}
{"molecule": "ICP47 1-48 (from UniProt P03170)", "values": [{"measurement": "Kd", "setting": "[2]", "value": 126, "unit": "nM"}]}
{"molecule": "ICP47-HA (wild-type ICP47 with a C-terminal HA-tag), in CMT64.5 cells (natural protein) MSWALEMADTFLDTMRVGPRTYADVRDEINKRGREDREAARTAVHDPERPLLRSPGLLPEIAPNASLGVAHRRTGGTVTDSPRNPVTR", "values": [{"measurement": "MHC class I surface expression (mAb 20-8-4) on CMT64.5 cells, ICP47-positive relative to ICP47-negative cells", "setting": "[3]", "value": 47, "unit": "% expression"}, {"measurement": "MHC class I surface expression (mAb 20-8-4) on CMT64.5 cells, ICP47-positive relative to ICP47-negative cells", "setting": "[4]", "value": 101, "unit": "% expression"}, {"measurement": "MHC class I surface expression (mAb 20-8-4) on CMT64.5 cells, ICP47-positive relative to ICP47-negative cells", "setting": "[5]", "value": 17, "unit": "% expression"}, {"measurement": "MHC class I surface expression (mAb 20-8-4) on CMT64.5 cells, ICP47-positive relative to ICP47-negative cells", "setting": "[6]", "value": 88, "unit": "% expression"}]}
{"molecule": "ICP47m-HA (ICP47 with Pro50Leu51Leu52 mutated to AlaAlaAla, C-terminal HA-tag), in CMT64.5 cells (natural protein, herpes simplex virus type-1 (HSV-1), UniProt P03170 1-88, looked up) MSWALEMADTFLDTMRVGPRTYADVRDEINKRGREDREAARTAVHDPERAAARSPGLLPEIAPNASLGVAHRRTGGTVTDSPRNPVTR", "values": [{"measurement": "MHC class I surface expression (mAb 20-8-4) on CMT64.5 cells, ICP47-positive relative to ICP47-negative cells", "setting": "[5]", "value": 26, "unit": "% expression"}]}
